Experimental data taken from patent publication US20180094062A1 (Hoffmann-La Roche, published 2018).

Legend:
[1] = target: T1, HER3 ECD-HRG complex (Heregulin-activated Her-3 ECD) (human, UniProt P21860 20-643); experiment: SPR, Interaction Map (TraceDrawer), two-state-kinetic no. 1, 25 C
T1 construct: receptor-ligand complex made by preincubating HER3 ECD with a five-fold molar excess of Heregulin; also called Heregulin/Her-3 ECD; Heregulin-complexed Her-3 ECD
Protocol: A Biacore T200 instrument (GE Healthcare) was mounted with a CM5 series sensor. The sensor was normalized in HBS-ET buffer (10 mM HEPES pH 7.4, 150 mM NaCl, 3 mM EDTA, 0.05% w/v Tween 20) according to the manufacturer's instructions. The sample buffer was the system buffer supplemented with 1 mg/ml CMD (Carboxymethyldextran, Sigma #86524). The system operated at 25° C. 6500 RU RAM-Fcγ (relative units of Fcγ-fragment RamlgG, GE Healthcare) were immobilized according to the manufacturer's instructions using amine coupling EDC/NHS chemistry on all four flow cells. The sensor was deactivated using 1M ethanolamine. […] Concentration dependent kinetics were measured. […] All analytes were injected for 5 min association time and 10 min dissociation time at 100 μl/min flow rate. The sensor capture system was regenerated by a 3 min injection at 10 μl/min of 10 mM glycine pH 1.7. Where possible kinetic data was evaluated using the Biacore T200 evaluation software.

[2] = target: T1, HER3 ECD-HRG complex …; experiment: SPR, Interaction Map (TraceDrawer), two-state-kinetic no. 2, 25 C
[3] = target: T2, human recombinant HER3 Extracellular Domain (HER3 ECD) (human, UniProt P21860 20-643); experiment: SPR Biacore 4000 kinetic screening, antibody captured, analyte 150 nM, 25 C
T2 construct: 68 kDa; also called human-Her3-ECD
Protocol: In all assay the test antibodies were captured. The system was under the control of the software version V1.1. The instrument buffer was HBS-EP (10 mM HEPES (pH 7.4), 150 mM NaCl, 1 mM EDTA, 0.05% (w/v) P20). The system operated at 25° C. 30 μg/ml Rabbit polyclonal antibody (RAM IgG, (Rabbit anti Mouse IgG with Fc gamma specificity) GE Healthcare) in 10 mM sodium acetate buffer (pH 4.5) was immobilized using EDC/NHS chemistry according to the manufacturer's instructions on the spots 1, 2, 4 and 5 in the flow cells 1, 2, 3 and 4. The sensor was saturated using 1M ethanolamine. In each flow cell, referenced signals were calculated using spots 1-2 and spots 5-4, spot 3 served as a blanc control. […] Prior to their application the hybridoma culture supernatants were diluted 1:5 in instrument buffer. The diluted mixtures were injected at a flow rate of 30 μl/min for 2 min. The antibody capture level (CL) in response units was monitored. Immediately thereafter the respective antigen was injected at a flow rate of 30 μl/min for 3 min association time. Thereafter, the antibody-antigen complex dissociation signal was recorded for 5 min. The sensor was regenerated by injecting a 10 mM glycine-HCl solution (pH 1.7) for 2 min at a flow rate of 30 μl/min. The recorded signal shortly before the end of the injection of the antigen was denoted as binding late (BL) in response units. The recorded signal shortly before the end of the recording of the dissociation is denoted as stability late (SL) in response units. The dissociation rate constants were determined calculated The antibody-antigen complex stability in minutes was calculated with the following formula: […]. The Molar Ratio was calculated with the formula: MW (antibody)/MW (antigen) *BL (antigen)/CL (antibody).

[4] = target: HER2, full length, on cells (transfected HEK293, MCF7) (human, UniProt P04626 23-1255); experiment: IHC on HEK293 cells transiently transfected with full length HER2; NC = untransfected cells
Protocol: (§1) All selected clones were tested for reactivity and specificity in IHC. […] After an additional fixation in formalin overnight the Agarose blocks were embedded in paraffin. Untransfected HEK293 cells were used as negative controls and treated accordingly to the transfected cells. After paraffin embedding 3 μm thin sections were prepared using a microtome. The sections were mounted on glass microscopy slides and dried for 2 h. All further steps of the immunohistochemical staining procedure were carried out using a Ventana Benchmark XT. The slides were dewaxed and antigen retrieval was performed by applying heat for 1 hour. For antigen retrieval the Ventana buffer CC1 was used. The antibodies were used at a concentration of 1 μg/ml. For the detection of bound antibody the Ventana UltraView detection kit was used.

[5] = target: HER4, full length, on transfected HEK293 cells (human, UniProt Q15303 26-1308); experiment: IHC on HEK293 cells transiently transfected with full length HER4; NC = untransfected cells
HER4, full length, on transfected HEK293 cells, sequence (Q15303 26-1308): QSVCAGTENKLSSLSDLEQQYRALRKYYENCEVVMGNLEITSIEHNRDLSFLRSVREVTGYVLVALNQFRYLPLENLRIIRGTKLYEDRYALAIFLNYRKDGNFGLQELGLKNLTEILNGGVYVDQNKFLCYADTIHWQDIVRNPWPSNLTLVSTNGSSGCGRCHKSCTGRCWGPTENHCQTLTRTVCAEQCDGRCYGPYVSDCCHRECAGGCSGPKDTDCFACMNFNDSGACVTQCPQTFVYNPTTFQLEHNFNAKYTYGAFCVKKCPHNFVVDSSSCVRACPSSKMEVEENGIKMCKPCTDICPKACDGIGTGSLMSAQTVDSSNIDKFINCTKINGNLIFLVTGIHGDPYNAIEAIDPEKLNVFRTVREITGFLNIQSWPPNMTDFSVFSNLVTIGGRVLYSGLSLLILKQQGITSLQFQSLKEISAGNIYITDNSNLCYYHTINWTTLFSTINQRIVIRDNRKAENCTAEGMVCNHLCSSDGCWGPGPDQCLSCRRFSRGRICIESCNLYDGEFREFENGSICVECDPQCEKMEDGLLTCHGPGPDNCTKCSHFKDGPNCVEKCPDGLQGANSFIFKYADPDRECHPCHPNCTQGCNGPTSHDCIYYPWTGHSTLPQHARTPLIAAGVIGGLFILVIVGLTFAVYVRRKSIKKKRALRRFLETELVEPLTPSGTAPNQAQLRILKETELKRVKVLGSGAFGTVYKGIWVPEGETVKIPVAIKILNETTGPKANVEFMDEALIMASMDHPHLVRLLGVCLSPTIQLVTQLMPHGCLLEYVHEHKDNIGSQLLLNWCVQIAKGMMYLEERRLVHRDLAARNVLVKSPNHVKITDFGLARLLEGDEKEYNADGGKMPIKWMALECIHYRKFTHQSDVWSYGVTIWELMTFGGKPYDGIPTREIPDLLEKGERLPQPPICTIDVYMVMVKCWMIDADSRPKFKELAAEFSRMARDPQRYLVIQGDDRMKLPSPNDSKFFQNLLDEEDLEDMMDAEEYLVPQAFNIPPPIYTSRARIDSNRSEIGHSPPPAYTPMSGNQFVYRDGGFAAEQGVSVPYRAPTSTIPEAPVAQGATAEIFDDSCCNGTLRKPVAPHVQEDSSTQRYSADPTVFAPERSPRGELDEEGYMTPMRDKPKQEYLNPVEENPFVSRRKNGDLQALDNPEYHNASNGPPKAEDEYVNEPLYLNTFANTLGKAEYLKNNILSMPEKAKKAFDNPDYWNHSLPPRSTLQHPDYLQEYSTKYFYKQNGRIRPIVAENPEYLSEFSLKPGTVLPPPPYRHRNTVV
Protocol: as §1

SBP-tagged HER3-ECD = target: T3, SBP-tagged HER3-ECD (human, UniProt P21860 20-643); experiment: time-resolved fluorescence, 10 nM Eu-labelled Heregulin-beta on plate-bound SBP-tagged HER3-ECD, antibody titrated
T3 construct: not shown: SBP tag
Protocol: On the next day the wells were washed three times with washing buffer (PBS+0.05% Tween-20) and blocked with PBS containing 1% BSA for one hour. After another three washes with washing buffer, 40 μl antibody solution (in Delfia Binding Buffer) was added to each well as a 2× stock of the desired final concentrations (10⁻³ to 10³ nM, alternatively 10⁻⁴ to 10² nM). Immediately […] of 20 nM Europium-labeled Heregulin-beta (PeproTech, Cat. #100-03) was added to achieve a final concentration of 10 nM. The plates were incubated on a shaker at room temperature for two hours. Following three washes with Delfia Wash Buffer, Delfia Enhancement Solution was added and incubated on a shaker for 15 minutes (light protected). Finally, the plates were measured in a Tecan Infinite F200 reader using a time-resolved fluorescence measurement protocol.

[6] = target: T4, HER1, full length, on transfected HEK293 cells (human, UniProt P00533 25-1210); experiment: IHC on HEK293 cells transiently transfected with full length HER1; NC = untransfected cells
T4 construct: HEK293 transiently transfected with a plasmid coding for full length HER1; also called EGFR
Protocol: as §1

Row | Binder | Kd [1] [nM] | Weight (contribution to the overall interaction) [1] [%] | koff [1] [s⁻¹] | kon [1] [M⁻¹ s⁻¹] | Kd [2] [nM] | Weight (contribution to the overall interaction) [2] [%] | koff [2] [s⁻¹] | kon [2] [M⁻¹ s⁻¹] | BL (binding late) [3] [RU] | MR (Molar Ratio) [3] | SL (stability late) [3] [RU] | koff [3] [s⁻¹] | t/2 diss [3] [min] | binding result [4] | binding result [5] | signal of HRG binding to HER3-ECD at the plateau (SBP-tagged HER3-ECD) [%] | binding result [6]
1 | anti-HER3 antibody M-08-11 (antibody, V domains shown, mouse monoclonal antibody from hybridoma, tested as hybridoma supernatant or as antibody; also called M-011) VH: QAYLQQSGAELMRPGASVRMSCQASGYTFTSYTIHWLKQTPRQGLEWIGAIYPRNGDFSYNQKFKDKASLTVDTSSSTAYMHLSSLTSEDSAVYFCARTINYGDWFAYWGQGTLVTVSA VL: DIQMIQSPASLFVSEGETVIITCRASENIYSNLAWYHQKKGKSPQVLVYAAIKLADGVPLRFSGSGSGTQFSLKINSLQSEDFGSYYCQHFWGPPYTFGSGTNLEIK | 419 | 79 | 0.0799 | 191000 | 23 | 6 | 0.000449 | 19500 | 61 | 0.4 | 62 | 4.11e-05 | 281 | no binding | no binding | 200 | 
2 | anti-HER3 antibody M-46-01 (antibody, V domains shown, mouse hybridoma clone) VH: QIQLQQSGPQLVRPGASVKISCKASGYSFTSYWMHWVKQRPGRGLEWIGMIDPSDGVTRLNQKFKDKATLTVDNSSSTAYMQLSSPTSEDSAVHYCARVDVLYWYFDVWGAGTTVTVSS VL: DIVLTQSPASLAVSLGQRATISCRASKSISISGYSYMHWYQQKAGQPPKLLIYLTSNLESGVPARFSGSGSGTDFTLNIHPVEEEDAATYYCHHSRELPFTFGSGTKLEIK | 356 | 77 | 0.232 | 652000 | 15.7 | 7 | 0.000774 | 49400 | 21 | 0.2 | 17 | 0.00041 | 28 | no binding | no binding | 330 | no binding
3 | anti-HER3 antibody M-17-02 (antibody, V domains shown, mouse hybridoma clone) VH: EVQLQQSGTVLARPGASVKMSCKASGYSFTSYWIHWVKQRPGQGLEWIGAIYPGNSDTTYNQKFKGKAKLTAVTSASTAYMELSSLTNEDSAVYYCARTGVWTSYYFDYWGQGTTLTVSS VL: DIQMTQSPASLSASVGETVTITCRASENIYSNLAWYQQKQGKSPQLLVYAATNLADGVPSRFSGSGSGTQFSLRINSLQPEDFGSYYCQHFYGTPFTFGTGTKLEIK |  |  |  |  |  |  |  |  | 10 | 0.1 | 10 |  |  | no binding | no binding |  | no binding
4 | anti-HER3 antibody M-43-01 (antibody, V domains shown, mouse hybridoma clone) VH: EVQLQQSGTVLARPGASVKMSCKASDYTFSNYWVHWVKQRPGQGLEWIGAIYPGNGDSTYYQKFKGKATLTAVTSTSTAYMDLSSLTNGDSAVYFCTRSGVGYNYYFDYWGQGTTLTVSS VL: DIQMTQSPASLSASVGETVTITCRASENIYSNLAWYQQKQGKSPQLLVYIATNLADGVPSRFSGSGSGTQFSLKINSLQPEDLGSYYCQHFYGTPFTFGTGTKLEIE | 261 | 69 | 0.141 | 541000 | 62 | 13 | 0.000988 | 15900 | 9 | 0.1 | 8 | 0.00066 | 18 | no binding | no binding | 200 | no binding
